How the values were obtained:
[1] = biological target: T1, GST-fused full length SerRS (human, UniProt P49591 1-514); test: pull-down; GST-fusion proteins bound to beads incubated with 0.5 uM purified recombinant His6-tagged protein in 500 ul GST pulldown buffer (150 mM NaCl, 20 mM HEPES pH 7.9, 0.5 mM EDTA, 0.1% Triton X-100, 10% glycerol, 1 mM DTT) overnight at 4 °C; washed 5 times; western blot with anti-His or anti-GST; settings: both partners purified
T1 construct: also called GST-SerRS FL; pGEX6P-1-SerRS

[2] = biological target: T2, purified His6-tagged SerRS (human, UniProt P49591 1-514); test: as above; settings: both partners purified
T2 construct: also called recombinant SerRS; PET-20b-SerRS
T2 sequence (P49591 whole entry): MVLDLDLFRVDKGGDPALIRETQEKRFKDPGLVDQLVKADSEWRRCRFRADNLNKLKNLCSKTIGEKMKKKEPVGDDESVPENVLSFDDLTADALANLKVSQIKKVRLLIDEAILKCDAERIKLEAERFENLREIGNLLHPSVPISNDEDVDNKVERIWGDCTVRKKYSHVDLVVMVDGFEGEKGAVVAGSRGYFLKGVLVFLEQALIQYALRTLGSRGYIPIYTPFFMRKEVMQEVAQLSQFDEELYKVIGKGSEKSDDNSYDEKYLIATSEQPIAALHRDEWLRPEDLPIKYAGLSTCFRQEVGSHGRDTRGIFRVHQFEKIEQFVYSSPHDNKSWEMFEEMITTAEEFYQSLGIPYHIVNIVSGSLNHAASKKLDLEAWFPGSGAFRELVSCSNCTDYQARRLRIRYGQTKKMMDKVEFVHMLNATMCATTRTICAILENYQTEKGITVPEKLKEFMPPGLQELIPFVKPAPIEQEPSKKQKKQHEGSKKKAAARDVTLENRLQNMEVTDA

T1 sequence (P49591 whole entry, the tested form may be a part): as the sequence (P49591 whole entry) above

B1: recombinant POT1 with a His6 tag at its C-terminal end (natural protein, human, UniProt Q9NUX5 1-634, looked up)
chain: MSLVPATNYIYTPLNQLKGGTIVNVYGVVKFFKPPYLSKGTDYCSVVTIVDQTNVKLTCLLFSGNYEALPIIYKNGDIVRFHRLKIQVYKKETQGITSSGFASLTFEGTLGAPIIPRTSSKYFNFTTEDHKMVEALRVWASTHMSPSWTLLKLCDVQPMQYFDLTCQLLGKAEVDGASFLLKVWDGTRTPFPSWRVLIQDLVLEGDLSHIHRLQNLTIDILVYDNHVHVARSLKVGSFLRIYSLHTKLQSMNSENQTMLSLEFHLHGGTSYGRGIRVLPESNSDVDQLKKDLESANLTANQHSDVICQSEPDDSFPSSGSVSLYEVERCQQLSATILTDHQYLERTPLCAILKQKAPQQYRIRAKLRSYKPRRLFQSVKLHCPKCHLLQEVPHEGDLDIIFQDGATKTPDVKLQNTSLYDSKIWTTKNQKGRKVAVHFVKNNGILPLSNECLLLIEGGTLSEICKLSNKFNSVIPVRSGHEDLELLDLSAPFLIQGTIHHYGCKQCSSLRSIQNLNSLVDKTSWIPSSVAEALGIVPLQYVFVMTFTLDDGTGVLEAYLMDSDKFFQIPASEVLMDDDLQKSVDMIMDMFCPPGIKIDAYPWLECFIKSYNVTNGTDNQICYQIFDTTVAEDVI
notes: also called His6-tagged POT1; pET-20b-POT1; not shown: His6, C-terminal, kept
[1]
  binding result: binds

B2: GST-fused full-length POT1 (natural protein, human, UniProt Q9NUX5 1-634, looked up)
chain: B1 chain
notes: Held on beads in the GST pull-down; also called GST-POT1 FL; pGEX6P-1-POT1; not shown: GST, N-terminal, kept
[2]
  binding result: binds
